Source: patent publication US20260069728A1, “MULTI-TARGETING COMPOUND AND USE THEREOF” (Chengdu Shetai Medical Technology Co., Ltd., priority 2023, published 2026)
Where two headings read alike, the source gives them in different places.

Legend:
[1] = Stability of radioligands in PBS buffer (radio-HPLC); format: physicochemical
Description: The purpose of this experiment was to test the stability of the radioligands under buffer conditions simulating the physiological environment. This stability is a prerequisite for further animal experiments.
(§1) 1. ^68Ga-SDYD01: ^68Ga-SDYD01 was added to PBS buffer (pH=7.4) and incubated at 37° C. The mixture samples were taken for radio-HPLC analysis after 0.5 hours, 1 hour, and 2 hours of incubation. The stability of ^68Ga-SDYD01 in PBS buffer: the radiochemical purities of ^68Ga-SDYD01 after incubation in PBS for 0.5 hours, 1 hour, and 2 hours were 98%, 97%, and 97%, respectively (FIG. 4).
(§2) 2. ^177Lu-SDYD01: ^177Lu-SDYD01 was added to PBS buffer (pH=7.4) and incubated at 37° C. The mixture samples were taken for radio-HPLC analysis after 24 hours, 48 hours, and 120 hours of incubation. The stability of ^177Lu-SDYD01 in PBS buffer: the radiochemical purities of ^177Lu-SDYD01 after incubation in PBS for 24 hours, 48 hours, and 120 hours were 97%, 96%, and 94%, respectively (FIG. 5).
as §1, with “^68Ga-SDYD02: ^68Ga-SDYD02” for “^68Ga-SDYD01: ^68Ga-SDYD01”, “^68Ga-SDYD02” for “^68Ga-SDYD01”, “96%, 95%” for “98%, 97%,”, “93%,” for “97%,”, “10).” for “4).”
as §2, with “^177Lu-SDYD02: ^177Lu-SDYD02” for “^177Lu-SDYD01: ^177Lu-SDYD01”, “^177Lu-SDYD02” for “^177Lu-SDYD01”, “95%, 91%” for “97%, 96%,”, “87%,” for “94%,”, “11).” for “5).”
as §1, with “1. ^68Ga-SDYD05: ^68Ga-SDYD05” for “1. ^68Ga-SDYD01: ^68Ga-SDYD01”, “of ^68Ga-SDYD05” for “of ^68Ga-SDYD01”, “98%, 96%” for “98%, 97%,”, “and 95%,” for “and 97%,”, “(FIG. 16).” for “(FIG. 4).”
as §2, with “^177Lu-SDYD05: ^177Lu-SDYD05” for “^177Lu-SDYD01: ^177Lu-SDYD01”, “^177Lu-SDYD05” for “^177Lu-SDYD01”, “97%, 96% and” for “97%,”, “96%,” for “96%, and 94%,”, “17).” for “5).”
1. ^68Ga-SDYD06: ^68Ga-SDYD06 was added to PBS buffer (pH=7.4) and incubated at 37° C. The mixture samples were taken for radio-HPLC analysis after 0.5, 1, and 2 hours of incubation. The stability of ^68Ga-SDYD06 in PBS buffer: the radiochemical purities of ^68Ga-SDYD06 after incubation in PBS for 0.5 hours, 1 hour, and 2 hours were 96%, 94% and 93%, respectively (FIG. 22).
2. ^177Lu-SDYD06: ^177Lu-SDYD06 was added to PBS buffer (pH=7.4) and incubated at 37° C. The mixture samples were taken for radio-HPLC analysis after 24 hours, 48 hours, and 120 hours of incubation.
1. ^68Ga-SDYD03: ^68Ga-SDYD03 was added to PBS buffer (pH=7.4) and incubated at 37° C. The mixture samples were taken for radio-HPLC analysis after 0.5 hours, 1 hour, and 2 hours of incubation. The stability of ^68Ga-SDYD03 PBS in PBS buffer: the radiochemical purities of ^68Ga-SDYD03 after incubation in PBS for 0.5 hours, 1 hour, and 2 hours were 96%, 96% and 95%, respectively (FIG. 27).
as §2, with “^177Lu-SDYD03: ^177Lu-SDYD03” for “^177Lu-SDYD01: ^177Lu-SDYD01”, “^177Lu-SDYD03” for “^177Lu-SDYD01”, “are 99%, 96%” for “were 97%, 96%,”, “28). […]” for “5).”

[2] = Small animal PET imaging and biodistribution study; format: in vivo, NSG mice; conditions: mouse, in vivo, iv, 7.4 MBq, absolute uptake value in the tumor
Description: (§3) Eleven NSG mice bearing subcutaneous xenograft tumors (U87 MG cells), with tumor sizes approximately 150 mm^3, were used. The mice were intravenously injected via the tail vein with approximately 7.4 MBq of ^68Ga-labeled SDYD01, SDYD02, SDYD03. SDYD04, SDYD05, SDYD06, SDYD07, SDYD08 or SDYD07-1 compounds, or with ^[…]-labeled FAPI-04 or FAP2286 compounds as tracers. Micro PET/CT imaging was performed at 30 min, 60 min, and 120 min post-injection. Static images were acquired in 3D mode for 20 minutes. Reconstruction was performed using the OSEM3D/MAP method to obtain attenuation-corrected PET/CT fusion images.
(§4) NSG mice bearing subcutaneous xenograft tumors (U87 MG cells) were divided into 3 groups, with 11 mice in each group. They were intravenously injected via the tail vein with ^68Ga-labeled SDYD01, SDYD02, SDYD03. SDYD04, SDYD05, SDYD06. SDYD07, SDYD08, or SDYD07-1 compounds, or with ^68Ga-labeled FAPI-04 or FAP2286 compounds as tracers. Tumor-bearing mice injected with ^68Ga-labeled compounds SDYD01, SDYD02, SDYD03, SDYD04, SDYD05, SDYD06, FAPI-04, as well as 68Ga-labeled compounds FAPI-04 and FAP2286, were euthanized at 30 min. 60 min, and 120 min, respectively, for each group. Tumor-bearing mice injected with ^68Ga-labeled compounds SDYD07, SDYD08, and SDYD07-1 were euthanized at 30 min, 60 min, and 90 min, respectively, for each group. Blood, tumors, and other major organs and tissues were collected, weighed, and measured for radioactivity. After radioactive decay correction, the standardized uptake value (SUV) and percentage injected dose per gram of tissue (% ID/g) were calculated. In these figures, (a) represents the PET/CT imaging results, (b) represents the biodistribution results, and (c) represents the relative ratios of radioactive uptake in tumor versus normal tissues.

[3] = tested on: subcutaneous xenograft tumors (U87 MG cells); assay: Small animal PET imaging and biodistribution study; format: in vivo, NSG mice; conditions: mouse, in vivo
Description: as §3, §4

CCCCCC(=O)N[C@@H]1CSCc2cc(CSCCNC(=O)COCCOCCNC(=O)COCCOCCNC(=O)CSC3CC(=O)N(CCC(=O)N[C@H](CCCCNC(=O)CN4CCN(CC(=O)O)CCN(CC(=O)O)CCN(CC(=O)O)CC4)C(=O)NCc4ccc(C(=O)NCCC[C@@H]5C(=O)N[C@@H](CCCNC(=N)N)C(=O)N[C@@H](Cc6ccc7ccccc7c6)C(=O)NCC(=O)N[C@H](Cc6ccc(O)cc6)C(=O)N5C)cc4)C3=O)cc(c2)CSC[C@@H](C(=O)O)NC(=O)[C@H](Cc2ccccc2)NC(=O)[C@H](CCC(N)=O)NC(=O)C([C@@H](C)O)NC(=O)[C@@H]2CCCN2C(=O)[C@@H]2CCCN2C1=O (single isomer, unassigned) [^68Ga-SDYD06, metal not drawn]
stability in PBS buffer (in words) [1]: quite stable in PBS buffer
tissue uptake at 0.5 h ([2]; NSG, total radioactivity): ≥ 10 %ID/g
tissue uptake at 1 h ([2]; NSG, total radioactivity): ≥ 10 %ID/g
radioactive uptake in the tumor sites (in words) [3]: significant radioactive uptake in the tumor sites

N#C[C@@H]1CC(F)(F)CN1C(=O)CNC(=O)c1ccnc2ccc(OCCCN3CCN(C(=O)CCOCCOCCNC(=O)CCN4C(=O)CC(SC[C@H](NC(=O)CN5CCN(CC(=O)O)CCN(CC(=O)O)CCN(CC(=O)O)CC5)C(=O)NCCCC[C@@H]5NC(=O)[C@@H](Cc6ccc(O)cc6)NC(=O)[C@H](CC(=O)O)NC(=O)CNC(=O)[C@H](CCCNC(=N)N)NC5=O)C4=O)CC3)cc12 (stereo partly shown) [^68Ga-SDYD07-1, metal not drawn]
tissue uptake at 0.5 h [2]: ~3 %ID/g
tissue uptake at 1 h [2]: ~3 %ID/g
radioactive uptake in non-target organs (in words) [3]: relatively high non-specific uptake in both the kidneys and liver
tumor uptake after 60 minutes (in words) [3]: decreased significantly after 60 minutes

CCCCCC(=O)N[C@@H]1CSCc2cc(CSCCNC(=O)[C@@H](CCCCNC(=O)CN3CCN(CC(=O)O)CCN(CC(=O)O)CCN(CC(=O)O)CC3)NC(=O)COCCOCCNC(=O)COCCOCCNC(=O)CCN3C(=O)CC(SCCNC(=O)CCC(=O)N[C@@H](CCCNC(=N)N)C(=O)N[C@@H](CCCNC(=N)N)C(=O)N[C@@H](Cc4ccc5ccccc5c4)C(=O)N[C@@H]4CSSC[C@@H](C(=O)N[C@@H](CCCNC(=N)N)C(N)=O)NC(=O)[C@H](CCCNC(N)=O)NC(=O)[C@H](CCCNC(=N)N)NC(=O)[C@H](Cc5ccc(O)cc5)NC(=O)[C@@H]5CCCN5C(=O)[C@H](CCCCN)NC(=O)[C@H](CCCCN)NC(=O)[C@H](CCCNC(N)=O)NC(=O)[C@H](Cc5ccc(O)cc5)NC4=O)C3=O)cc(c2)CSC[C@@H](C(=O)O)NC(=O)[C@H](Cc2ccccc2)NC(=O)[C@H](CCC(N)=O)NC(=O)C([C@@H](C)O)NC(=O)[C@@H]2CCCN2C(=O)[C@@H]2CCCN2C1=O (single isomer, unassigned) [^177Lu-SDYD02, metal not drawn]
stability in PBS buffer (in words) [1]: quite stable in PBS buffer

CN1C(=O)[C@@H](Cc2ccc(O)cc2)NC(=O)CNC(=O)[C@H](Cc2ccc3ccccc3c2)NC(=O)[C@H](CCCNC(=N)N)NC(=O)[C@H]1CCCNC(=O)c1ccc(CNC(=O)[C@H](CCCCNC(=O)CN2CCN(CC(=O)O)CCN(CC(=O)O)CCN(CC(=O)O)CC2)NC(=O)CCC(=O)NCCOCCOCC(=O)NCCOCCOCC(=O)N2CCN(CCCOc3ccc4nccc(C(=O)NCC(=O)N5CC(F)(F)C[C@H]5C#N)c4c3)CC2)cc1 [^177Lu-SDYD05, metal not drawn]
stability in PBS buffer (in words) [1]: quite stable in PBS buffer

CCCCCC(=O)N[C@@H]1CSCc2cc(CSCCNC(=O)COCCOCCNC(=O)COCCOCCNC(=O)CSC3CC(=O)N(CCC(=O)N[C@H](CCCCNC(=O)CN4CCN(CC(=O)O)CCN(CC(=O)O)CCN(CC(=O)O)CC4)C(=O)NCc4ccc(C(=O)NCCC[C@@H]5C(=O)N[C@@H](CCCNC(=N)N)C(=O)N[C@@H](Cc6ccc7ccccc7c6)C(=O)NCC(=O)N[C@H](Cc6ccc(O)cc6)C(=O)N5C)cc4)C3=O)cc(c2)CSC[C@@H](C(=O)O)NC(=O)[C@H](Cc2ccccc2)NC(=O)[C@H](CCC(N)=O)NC(=O)C([C@@H](C)O)NC(=O)[C@@H]2CCCN2C(=O)[C@@H]2CCCN2C1=O (single isomer, unassigned) [^177Lu-SDYD06, metal not drawn]
stability in PBS buffer (in words) [1]: quite stable in PBS buffer

CC(C)CC(CC(C)C)NC(=O)[C@H](Cc1cnc[nH]1)NC(=O)CNC(=O)C(NC(=O)[C@H](C)NC(=O)[C@H](Cc1c[nH]c2ccccc12)NC(=O)[C@H](CCC(N)=O)NC(=O)[C@@H](Cc1ccccc1)NC(=O)COCC(=O)Nc1ccc(CNC(=O)COCCOCCNC(=O)COCCOCCNC(=O)[C@H](CCCCNC(=O)CN2CCN(CC(=O)O)CCN(CC(=O)O)CCN(CC(=O)O)CC2)NC(=O)CCC(=O)N2CCN(CCCOc3ccc4nccc(C(=O)NCC(=O)N5CC(F)(F)C[C@H]5C#N)c4c3)CC2)cc1)C(C)C (single isomer, unassigned) [^177Lu-SDYD03, metal not drawn]
stability in PBS buffer (in words) ([1]; PBS buffer pH=7.4, 37° C.): quite stable in PBS buffer

CCCCCC(=O)N[C@H]1CSCc2cc(CSCCNC(=O)[C@H](CCCCNC(=O)CCN3C(=O)CC(SCC(=O)NCCOCCOCCOCCOCCC(=O)NCCCC[C@@H]4NC(=O)[C@@H](Cc5ccc(O)cc5)NC(=O)[C@H](CC(=O)O)NC(=O)CNC(=O)[C@H](CCCNC(=N)N)NC4=O)C3=O)NC(=O)CCC(C(=O)O)N3CCN(CC(=O)O)CCN(CC(=O)O)CCN(CC(=O)O)CC3)cc(c2)CSC[C@@H](C(=O)O)NC(=O)[C@H](Cc2ccccc2)NC(=O)[C@H](CCC(N)=O)NC(=O)C([C@@H](C)O)NC(=O)[C@@H]2CCCN2C(=O)[C@@H]2CCCN2C1=O (single isomer, unassigned) [^177Lu-SDYD08, metal not drawn]
stability in PBS buffer (in words) [1]: quite stable in PBS buffer
